Laboratory results published in IntAct's records for PubMed 36931259.

B1: 14-3-3 protein sigma (Homo sapiens), P31947 (parent)
chain: MERASLIQKAKLAEQAERYEDMAAFMKGAVEKGEELSCEERNLLSVAYKNVVGGQRAAWRVLSSIEQKSNEEGSEEKGPEVREYREKVETELQGVCDTVLGLLDSHLIKEAGDAESRVFYLKMKGDYYRYLAEVATGDDKKRIIDSARSAYQEAMDISKKEMPPTNPIRLGLALNFSVFHYEIANSPEEAISLAKTTFDEAMADLHTLSEDSYKDSTLIMQLLRDNLTLWTADNAGEEGGEAPQEPQS
partner: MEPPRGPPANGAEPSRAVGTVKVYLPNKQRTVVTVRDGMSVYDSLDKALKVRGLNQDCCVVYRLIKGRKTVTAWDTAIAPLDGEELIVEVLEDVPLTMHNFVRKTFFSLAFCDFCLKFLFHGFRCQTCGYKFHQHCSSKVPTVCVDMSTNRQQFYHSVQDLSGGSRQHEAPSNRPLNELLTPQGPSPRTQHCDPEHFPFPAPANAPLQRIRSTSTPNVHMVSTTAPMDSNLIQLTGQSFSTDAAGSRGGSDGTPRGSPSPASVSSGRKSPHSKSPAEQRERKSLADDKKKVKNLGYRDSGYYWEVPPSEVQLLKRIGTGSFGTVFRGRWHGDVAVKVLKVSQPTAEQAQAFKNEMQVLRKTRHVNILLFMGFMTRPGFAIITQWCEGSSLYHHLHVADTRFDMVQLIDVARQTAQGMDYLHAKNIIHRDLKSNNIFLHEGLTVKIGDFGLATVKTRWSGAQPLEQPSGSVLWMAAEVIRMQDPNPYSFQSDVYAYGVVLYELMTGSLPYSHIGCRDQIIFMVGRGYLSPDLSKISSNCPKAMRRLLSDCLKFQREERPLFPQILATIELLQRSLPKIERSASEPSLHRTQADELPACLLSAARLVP

Variants of: B1
Details: with araf_human ARAF

| Variant | effect of a mutation on the interaction |
| --- | --- |
| MERASLIQKAKLAEQAERYEDMAAFMKGAVEKGEELSCEERNLLSVAYENVVGGQEAAWRVLSSIEQKSNEEGSEEKGPEVREYREKVETELQGVCDTVLGLLDSHLIKEAGDAESRVFYLKMKGDYYRYLAEVATGDDKKRIIDSARSAYQEAMDISKKEMPPTNPIRLGLALNFSDFHYEIANSPEEAISLAKTTFDEAMADLHTLSEDSYKDSTLIMQLLRDNLTLWTADNAGEEGGEAPQEPQS [K49E;R56E;V178D] | decreasing interaction strength |
